{
  "source": "paper PMC1964878",
  "key": {"[1]": {"test_system": "O=C(O)[C@H]1C[C@@H](O)CN1", "assay": "purified protein", "conditions": "Tris 20 mM/EDTA 1 mM, pH 8-9 (optimum buffer), 37 C, 10-160 mM substrate"}, "[2]": {"test_system": "O=C(O)[C@@H]1C[C@@H](O)CN1", "assay": "purified protein", "conditions": "Tris 20 mM/EDTA 1 mM, pH 8-9 (optimum buffer), 37 C, 10-160 mM substrate"}},
  "data": [
    {"substance": "PaHyPRE (Pseudomonas aeruginosa PAO1)", "values": [
      {"measurement": "Km", "setting": "[1]", "result": 18.5, "unit": "mM"},
      {"measurement": "Km", "setting": "[2]", "result": 15.9, "unit": "mM"}
    ]}
  ]
}
